This note sets out measurements from publication PMC5027281 (Nature Communications, 2016).

As a reminder, the Kd is the equilibrium constant for the complex coming apart. By koff is commonly meant a measure of how fast the partners let go of each other. A word on the kon: it is the second-order rate constant of association.

In the test the target is Recombinant full-length HA of A/Vietnam/1203/04 (H5-VN04) (Influenza A virus A/Vietnam/1203/2004 …, UniProt Q5EP31). In words: BLI. The settings on record: both partners purified.

B1: 3I14 VLD94N variant IgG1 (antibody, V domains shown)
VH: QVQLLESGGGVVQPGRSLRLSCAASGFTFSNYGMHWVRQAPGKGLEWVAIISFDGSKKYYANSVKGRSTISRDNSKNTLSLQMNSLGPEDTALYYCAKLPSPYYFDSRFVWVAASAFHFWGQGILVTVSS
VL: NFMLTQPPSASGTPGQRVTISCSGSSSNIGGNTVHWFQQLPGTAPKLLIYTNSLRPSGVPDRFSGSKSGTSASLAISGLQSEDEADYYCAAWDNSLNGQVFGGGTKLTVL
As for B1, the dissociation constant Kd is 0.187 nM, the koff stood at 7.74e-05 s⁻¹ and the on-rate constant (kon) worked out at 383000 M⁻¹ s⁻¹.
